Results on 1 substance are retold here after patent publication US20250320258.

The test system of this data set is NSP1 (SARS-CoV-2).

Substance 18S rRNA showed a binding signal (fold enrichment) greater than 5.
